Experimental data: paper PMC5304201 (2017)

Target: Amyloid-beta 42 oligomers Abeta42 (Homo sapiens, UniProt P05067, biotinylated Abeta42 oligomers, HA-tagged NRX1beta)
Assay: cell surface binding assay, Scatchard

B1: Neurexin-1beta S4(-) (protein)
chain: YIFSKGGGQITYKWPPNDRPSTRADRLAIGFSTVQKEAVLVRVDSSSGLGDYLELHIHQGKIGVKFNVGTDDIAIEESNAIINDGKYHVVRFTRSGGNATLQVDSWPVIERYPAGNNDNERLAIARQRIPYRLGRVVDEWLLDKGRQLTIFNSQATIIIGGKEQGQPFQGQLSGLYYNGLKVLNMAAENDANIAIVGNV
With B1 the Kd was 184 nM.
